Assay results from patent US20140072613A1 (published 2014).

T1: PhKγ2(h) (human, UniProt P15735 1-406)
T1 sequence (looked up): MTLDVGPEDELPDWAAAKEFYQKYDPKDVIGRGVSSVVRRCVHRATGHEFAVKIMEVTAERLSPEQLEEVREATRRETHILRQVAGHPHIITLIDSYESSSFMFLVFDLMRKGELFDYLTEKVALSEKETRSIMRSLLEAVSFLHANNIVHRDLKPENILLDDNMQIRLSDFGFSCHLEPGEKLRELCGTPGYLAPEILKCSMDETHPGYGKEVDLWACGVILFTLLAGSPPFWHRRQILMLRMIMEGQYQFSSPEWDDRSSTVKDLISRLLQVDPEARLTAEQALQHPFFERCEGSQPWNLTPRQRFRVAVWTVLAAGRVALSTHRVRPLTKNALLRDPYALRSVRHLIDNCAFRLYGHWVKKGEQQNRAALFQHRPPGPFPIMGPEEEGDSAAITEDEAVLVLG

T2: PKCµ(h) (human, UniProt Q15139 1-912)
T2 sequence (looked up): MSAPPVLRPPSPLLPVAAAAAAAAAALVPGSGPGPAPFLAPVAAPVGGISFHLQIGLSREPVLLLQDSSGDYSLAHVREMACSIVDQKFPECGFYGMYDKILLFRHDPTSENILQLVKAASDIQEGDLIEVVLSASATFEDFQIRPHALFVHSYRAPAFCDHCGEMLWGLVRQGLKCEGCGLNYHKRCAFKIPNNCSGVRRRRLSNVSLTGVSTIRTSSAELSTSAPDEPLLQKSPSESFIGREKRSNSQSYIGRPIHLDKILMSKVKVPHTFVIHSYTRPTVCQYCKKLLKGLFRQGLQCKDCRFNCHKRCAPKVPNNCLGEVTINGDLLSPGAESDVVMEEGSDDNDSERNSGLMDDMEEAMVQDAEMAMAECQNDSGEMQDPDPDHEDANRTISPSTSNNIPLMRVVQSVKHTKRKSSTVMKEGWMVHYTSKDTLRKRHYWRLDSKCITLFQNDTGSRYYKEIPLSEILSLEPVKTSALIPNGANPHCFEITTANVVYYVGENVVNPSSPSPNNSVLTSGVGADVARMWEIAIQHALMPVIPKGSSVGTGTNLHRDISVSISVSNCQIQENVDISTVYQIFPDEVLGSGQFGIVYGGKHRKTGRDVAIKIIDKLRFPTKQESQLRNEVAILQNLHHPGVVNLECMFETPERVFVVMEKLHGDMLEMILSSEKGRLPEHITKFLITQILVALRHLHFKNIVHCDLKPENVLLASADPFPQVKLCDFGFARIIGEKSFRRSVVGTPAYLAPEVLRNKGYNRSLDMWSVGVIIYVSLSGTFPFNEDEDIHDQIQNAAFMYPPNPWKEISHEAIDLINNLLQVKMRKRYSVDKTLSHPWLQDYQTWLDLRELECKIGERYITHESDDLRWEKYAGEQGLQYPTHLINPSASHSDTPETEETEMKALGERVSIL

T3: SAPK4(h) (human, UniProt O15264 1-365)
T3 sequence (looked up): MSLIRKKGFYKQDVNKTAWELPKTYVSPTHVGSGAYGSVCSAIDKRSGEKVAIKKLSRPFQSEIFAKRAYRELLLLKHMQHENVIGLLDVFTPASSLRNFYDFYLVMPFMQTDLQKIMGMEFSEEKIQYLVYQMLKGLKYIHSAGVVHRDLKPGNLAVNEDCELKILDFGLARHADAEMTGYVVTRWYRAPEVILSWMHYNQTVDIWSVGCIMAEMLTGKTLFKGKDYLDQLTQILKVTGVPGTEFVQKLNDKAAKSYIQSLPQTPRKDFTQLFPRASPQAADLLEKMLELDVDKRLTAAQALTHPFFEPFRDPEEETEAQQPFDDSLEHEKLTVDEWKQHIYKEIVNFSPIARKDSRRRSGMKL

T4: TAK1(h) (human, UniProt O43318 1-303, limits assumed)
T4 sequence (looked up): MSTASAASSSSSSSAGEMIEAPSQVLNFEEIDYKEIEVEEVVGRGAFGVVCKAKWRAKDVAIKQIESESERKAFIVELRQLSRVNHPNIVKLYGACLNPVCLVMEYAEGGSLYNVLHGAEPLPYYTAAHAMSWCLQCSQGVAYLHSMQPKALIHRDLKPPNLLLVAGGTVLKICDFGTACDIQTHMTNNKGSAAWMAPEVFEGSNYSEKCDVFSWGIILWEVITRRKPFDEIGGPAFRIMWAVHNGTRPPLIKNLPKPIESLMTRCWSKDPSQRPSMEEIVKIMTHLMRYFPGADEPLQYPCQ

T5: eEF-2K(h) (human, UniProt O00418 1-725, limits assumed)
T5 sequence (looked up): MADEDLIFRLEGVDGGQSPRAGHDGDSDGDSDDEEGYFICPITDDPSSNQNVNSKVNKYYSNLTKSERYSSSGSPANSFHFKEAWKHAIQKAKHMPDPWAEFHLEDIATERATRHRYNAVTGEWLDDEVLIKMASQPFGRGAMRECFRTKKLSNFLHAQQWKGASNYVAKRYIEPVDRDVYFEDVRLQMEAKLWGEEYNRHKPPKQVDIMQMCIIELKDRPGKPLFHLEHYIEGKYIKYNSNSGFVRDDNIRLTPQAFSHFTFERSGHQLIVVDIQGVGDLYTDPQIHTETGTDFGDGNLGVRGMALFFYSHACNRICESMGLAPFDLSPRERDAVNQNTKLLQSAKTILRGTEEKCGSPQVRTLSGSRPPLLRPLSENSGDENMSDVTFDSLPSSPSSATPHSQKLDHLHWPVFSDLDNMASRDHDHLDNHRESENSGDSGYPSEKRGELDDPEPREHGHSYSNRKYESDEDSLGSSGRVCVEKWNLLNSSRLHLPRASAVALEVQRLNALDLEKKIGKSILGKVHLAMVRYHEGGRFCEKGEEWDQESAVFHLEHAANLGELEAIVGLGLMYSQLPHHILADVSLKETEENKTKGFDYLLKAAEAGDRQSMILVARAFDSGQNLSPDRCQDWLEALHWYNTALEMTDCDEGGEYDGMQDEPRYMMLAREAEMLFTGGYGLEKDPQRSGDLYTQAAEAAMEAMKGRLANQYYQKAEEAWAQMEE

B1: MMI-0300 (peptide)
peptide: FAKLAARLYRKALARQLGVAA
B2: MMI-0400 (peptide)
peptide: KAFAKLAARLYRKALARQLGVAA

Columns and labels:
Experiment in all cases: cell-based or functional assay
6SK3β(h) = 6SK3β(h) (human, UniProt P49841 1-420)
Sequence of 6SK3β(h) (P49841 whole entry): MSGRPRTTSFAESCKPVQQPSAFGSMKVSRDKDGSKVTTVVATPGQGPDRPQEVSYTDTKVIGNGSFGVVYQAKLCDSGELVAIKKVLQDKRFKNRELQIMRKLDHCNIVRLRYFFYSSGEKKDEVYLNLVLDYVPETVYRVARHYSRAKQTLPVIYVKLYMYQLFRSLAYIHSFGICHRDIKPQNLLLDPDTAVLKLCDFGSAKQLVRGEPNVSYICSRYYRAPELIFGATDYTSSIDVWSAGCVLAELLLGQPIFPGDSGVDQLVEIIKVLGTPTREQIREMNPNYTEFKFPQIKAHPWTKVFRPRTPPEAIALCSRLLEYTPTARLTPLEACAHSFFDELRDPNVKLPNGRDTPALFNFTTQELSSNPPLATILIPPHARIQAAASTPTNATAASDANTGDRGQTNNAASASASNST

PDGFRα(D842V)(h) = PDGFRα(D842V)(h) (human, UniProt P16234 550-1089, limits assumed)
Sequence of PDGFRα(D842V)(h) (P16234 550-1089 D842V limits assumed): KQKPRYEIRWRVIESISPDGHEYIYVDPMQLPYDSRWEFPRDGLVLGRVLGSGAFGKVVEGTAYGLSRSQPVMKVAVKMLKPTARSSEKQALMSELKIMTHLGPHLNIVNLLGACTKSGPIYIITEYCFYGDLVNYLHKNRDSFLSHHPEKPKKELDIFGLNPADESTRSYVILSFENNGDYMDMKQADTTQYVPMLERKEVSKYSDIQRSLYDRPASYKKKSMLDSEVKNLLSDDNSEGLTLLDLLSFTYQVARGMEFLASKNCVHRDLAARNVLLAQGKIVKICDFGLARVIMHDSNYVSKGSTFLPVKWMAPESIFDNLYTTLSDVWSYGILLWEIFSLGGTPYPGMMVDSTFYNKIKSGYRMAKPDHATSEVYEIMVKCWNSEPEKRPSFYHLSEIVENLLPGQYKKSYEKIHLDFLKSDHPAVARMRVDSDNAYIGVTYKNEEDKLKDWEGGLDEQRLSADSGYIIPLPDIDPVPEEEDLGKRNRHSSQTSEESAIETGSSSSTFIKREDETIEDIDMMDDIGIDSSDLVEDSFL

PhKγ2(h) = molecular target: T1, PhKγ2(h)
PKCµ(h) = molecular target: T2, PKCµ(h)
SAPK4(h) = molecular target: T3, SAPK4(h)
BRK(h) = BRK(h) (human, UniProt Q13882 1-451, limits assumed)
TAK1(h) = molecular target: T4, TAK1(h)
eEF-2K(h) = molecular target: T5, eEF-2K(h)

Binder	% activity, 100 µM (6SK3β(h)) [%]	% activity, 100 µM (PDGFRα(D842V)(h)) [%]	% activity, 100 µM (PhKγ2(h)) [%]	% activity, 100 µM (PKCµ(h)) [%]	% activity, 100 µM (SAPK4(h)) [%]	% activity, 100 µM (BRK(h)) [%]	% activity, 100 µM (TAK1(h)) [%]	% activity, 100 µM (eEF-2K(h)) [%]
B1	205	114	46	22	96	35	122	91
B2	202	118	38	14	91	18	177	43
